Measurements published in patent publication US20090047240A1.

Tests used:
[1] = biological target: TLR7 expressed in HEK293 cells (UniProt Q9NYK1); assay: cell-based or functional assay
[2] = biological target: TLR9 expressed in HEK293 cells (UniProt Q9NR96); assay: cell-based or functional assay
Sequence of TLR9 expressed in HEK293 cells (Q9NR96 26-1032 limits assumed): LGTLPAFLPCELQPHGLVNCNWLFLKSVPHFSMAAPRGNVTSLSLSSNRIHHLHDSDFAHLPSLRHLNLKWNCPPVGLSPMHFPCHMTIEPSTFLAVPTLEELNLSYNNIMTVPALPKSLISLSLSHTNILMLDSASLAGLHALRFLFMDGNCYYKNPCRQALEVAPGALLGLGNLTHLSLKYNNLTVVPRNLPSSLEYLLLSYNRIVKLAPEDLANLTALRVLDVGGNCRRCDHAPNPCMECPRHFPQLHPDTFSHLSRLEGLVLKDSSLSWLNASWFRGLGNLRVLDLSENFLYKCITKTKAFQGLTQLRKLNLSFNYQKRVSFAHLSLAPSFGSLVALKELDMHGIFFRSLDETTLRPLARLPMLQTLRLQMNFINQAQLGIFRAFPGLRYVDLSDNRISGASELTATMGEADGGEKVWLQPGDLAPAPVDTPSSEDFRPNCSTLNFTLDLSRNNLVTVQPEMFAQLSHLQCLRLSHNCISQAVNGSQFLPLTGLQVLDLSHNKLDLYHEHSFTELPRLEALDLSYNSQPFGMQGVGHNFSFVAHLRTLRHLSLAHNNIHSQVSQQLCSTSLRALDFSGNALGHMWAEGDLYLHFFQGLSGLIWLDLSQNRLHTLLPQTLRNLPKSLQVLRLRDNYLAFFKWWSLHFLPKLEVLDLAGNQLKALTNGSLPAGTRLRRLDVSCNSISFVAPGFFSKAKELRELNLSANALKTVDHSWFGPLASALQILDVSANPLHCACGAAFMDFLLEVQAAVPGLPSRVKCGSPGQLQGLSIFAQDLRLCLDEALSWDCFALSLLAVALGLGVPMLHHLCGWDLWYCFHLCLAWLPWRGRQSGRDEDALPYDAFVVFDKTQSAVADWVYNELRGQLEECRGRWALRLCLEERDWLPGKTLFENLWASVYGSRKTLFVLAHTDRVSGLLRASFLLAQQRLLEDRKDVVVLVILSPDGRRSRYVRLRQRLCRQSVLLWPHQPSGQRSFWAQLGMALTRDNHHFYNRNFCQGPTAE

Sequence of TLR7 expressed in HEK293 cells (Q9NYK1 27-1049 limits assumed): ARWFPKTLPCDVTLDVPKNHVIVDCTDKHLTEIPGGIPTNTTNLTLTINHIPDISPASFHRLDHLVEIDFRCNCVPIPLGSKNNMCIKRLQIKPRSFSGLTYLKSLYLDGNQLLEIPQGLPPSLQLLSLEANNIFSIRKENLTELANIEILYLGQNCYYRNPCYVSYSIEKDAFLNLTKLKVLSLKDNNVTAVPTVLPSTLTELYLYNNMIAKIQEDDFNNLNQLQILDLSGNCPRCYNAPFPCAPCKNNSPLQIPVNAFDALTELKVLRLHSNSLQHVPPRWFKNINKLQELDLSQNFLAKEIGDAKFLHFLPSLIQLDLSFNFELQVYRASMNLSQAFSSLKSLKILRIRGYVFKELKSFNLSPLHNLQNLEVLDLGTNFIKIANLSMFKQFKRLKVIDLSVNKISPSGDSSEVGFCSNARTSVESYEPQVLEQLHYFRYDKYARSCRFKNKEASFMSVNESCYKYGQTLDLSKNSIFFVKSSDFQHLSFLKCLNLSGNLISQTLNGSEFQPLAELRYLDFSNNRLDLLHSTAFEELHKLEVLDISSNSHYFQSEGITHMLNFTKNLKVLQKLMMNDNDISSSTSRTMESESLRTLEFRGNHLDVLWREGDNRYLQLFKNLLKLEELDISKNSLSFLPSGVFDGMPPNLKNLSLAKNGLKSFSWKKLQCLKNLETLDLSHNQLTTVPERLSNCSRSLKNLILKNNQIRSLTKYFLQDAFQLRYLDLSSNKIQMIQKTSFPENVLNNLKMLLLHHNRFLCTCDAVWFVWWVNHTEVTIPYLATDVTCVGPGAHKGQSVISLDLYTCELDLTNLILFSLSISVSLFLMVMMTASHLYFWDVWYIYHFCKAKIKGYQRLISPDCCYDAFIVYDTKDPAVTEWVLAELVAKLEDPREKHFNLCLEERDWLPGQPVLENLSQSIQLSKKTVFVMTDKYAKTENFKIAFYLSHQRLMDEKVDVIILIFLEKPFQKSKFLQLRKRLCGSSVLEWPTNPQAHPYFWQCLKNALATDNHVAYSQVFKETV

- NF-κB activation (luciferase reporter) in HEK293 cells expressing TLR7 and TLR4, stimulated with R848 (fold reduction) [1]: 2
- NF-κB activation (luciferase reporter) in HEK293 cells expressing TLR9, stimulated with CpG DNA (fold reduction) [2]: 5 to 10
Substance: recombinant human Cpn10 with an N-terminal Alanine residue (from UniProt P61604 2-102)
